One experiment deals with CD32aECDHis (human) (UniProt P12318). Description: TR-FRET competition of unlabeled against labelled HuMab-KLH, Fc-mediated.
In experiment [1] the target is CD32bECDHis (human) (UniProt P31994). The experiment is described as above.
Experiment [2] has as its target CD32b on CD32b+ Daudi cells (Daudi-luc) (human) (UniProt P31994). Put plainly: cell-based or functional assay.
The target is the same in experiment [3]. Put plainly: cell-based or functional assay. The source holds these as a separate data set.
Experiment [4] addresses CD32bECDHis (human) (UniProt P31994). Put plainly: ELISA on coated CD32bECDHis. Background: An ELISA detects its analyte on a solid surface through an enzyme-linked reagent.
In experiment [5] the target is CD32b on CD32b+ Daudi cells (Daudi-luc) (human) (UniProt P31994). Description: flow cytometry on Daudi-luc cells. (Flow cytometry measures light scatter and fluorescence of single cells or particles in a stream.)
Sequence of CD32b on CD32b+ Daudi cells (Daudi-luc) (human) (P31994 43-310): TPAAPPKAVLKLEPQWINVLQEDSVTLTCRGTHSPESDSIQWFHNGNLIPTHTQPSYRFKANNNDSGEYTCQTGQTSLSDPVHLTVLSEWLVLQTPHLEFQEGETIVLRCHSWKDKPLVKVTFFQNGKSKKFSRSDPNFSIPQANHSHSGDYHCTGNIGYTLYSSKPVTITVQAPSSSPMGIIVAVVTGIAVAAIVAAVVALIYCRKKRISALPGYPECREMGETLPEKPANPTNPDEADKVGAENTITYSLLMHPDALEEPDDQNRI
The target in experiment [6] is full length CD32b on stably transfected IIA1.6 cells (human) (UniProt P31994). Put plainly: flow cytometry on IIA1.6-CD32b cells.
Sequence of full length CD32b on stably transfected IIA1.6 cells (human) (P31994 43-310): as above
Experiment [7] concerns the target full length CD32b1 on transfected IIA1.6 cells (human) (UniProt P31994). Description: flow cytometry on IIA1.6-CD32b1 cells.
In experiment [8] the target is full length CD32b2 on transfected IIA1.6 cells (human) (UniProt P31994). Description: flow cytometry on IIA1.6-CD32b2 cells.
Sequence of full length CD32b2 on transfected IIA1.6 cells (human) (P31994 other isoform, or with tags, fused parts or gaps): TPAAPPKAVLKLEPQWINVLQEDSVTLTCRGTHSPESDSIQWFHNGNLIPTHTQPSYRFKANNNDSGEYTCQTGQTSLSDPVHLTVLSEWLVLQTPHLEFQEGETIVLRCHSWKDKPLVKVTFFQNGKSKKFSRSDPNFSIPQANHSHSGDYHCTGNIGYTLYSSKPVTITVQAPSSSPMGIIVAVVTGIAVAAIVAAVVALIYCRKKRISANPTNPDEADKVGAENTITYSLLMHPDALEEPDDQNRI
Experiment [9] deals with biotinylated CD32bECDHis (human) (UniProt P31994). Description: competition ELISA, competitor 016.
Sequence of biotinylated CD32bECDHis (human) (P31994 43-223 limits assumed, form in doubt): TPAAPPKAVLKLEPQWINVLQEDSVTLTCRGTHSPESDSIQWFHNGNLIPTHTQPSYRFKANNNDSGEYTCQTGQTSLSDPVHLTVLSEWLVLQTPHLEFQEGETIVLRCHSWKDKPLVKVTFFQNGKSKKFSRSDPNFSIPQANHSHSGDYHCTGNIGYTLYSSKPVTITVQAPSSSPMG
For experiment [10] the target is unchanged. Description: competition ELISA, competitor 020.
The target is the same in experiment [11]. Put plainly: competition ELISA, competitor 022.
For experiment [12] the target is unchanged. Put plainly: competition ELISA, competitor 024.
Experiment [13] has the same target. Description: competition ELISA, competitor 026.
For experiment [14] the target is unchanged. Put plainly: competition ELISA, competitor 028.
The target is the same in experiment [15]. Put plainly: competition ELISA, competitor 034.
Experiment [16] has the same target. Description: competition ELISA, competitor 038.
The target is the same in experiment [17]. Put plainly: competition ELISA, competitor 053.
For experiment [18] the target is unchanged. Put plainly: competition ELISA, competitor 063.
For experiment [19] the target is unchanged. Put plainly: competition ELISA, competitor 2B6.
The target in experiment [20] is CD32b on CD32b+ Daudi cells (Daudi-luc) (human) (UniProt P31994). Description: flow cytometry on JeKo-1 mantle cell lymphoma cells.
Experiment [21] addresses CD32bECDHis (human) (UniProt P31994). Put plainly: TR-FRET competition against HuMab-KLH-AlexaFluor 647. A general note: In TR-FRET formats the signal depends on donor and acceptor labels being close together.
Experiment [22] shares this target. Description: SPR BIAcore 3000, antibody immobilized, CD32bECDHis analyte.
Experiment [23] has as its target full length CD32b1 on transfected IIA1.6 cells (human) (UniProt P31994). Put plainly: flow cytometry on IIA1.6-CD32b1 against IIA1.6-CD32b2 cells.

As usually defined, the IC50 is the midpoint of a concentration-inhibition curve. One may read the EC50 as the midpoint of the concentration-response curve. Lower therefore signals higher potency in that assay. For orientation: Kd means the constant that tells how readily two partners part at equilibrium. By koff is commonly meant the first-order rate constant of dissociation. For orientation: kon means the rate constant with which the complex forms. Read a high kon as faster complex formation.

Where two headings read alike, the source gives them in different places.

Sequence of CD32bECDHis (human) (P31994 43-223 limits assumed, form in doubt): as above
Sequence of full length CD32b1 on transfected IIA1.6 cells (human) (P31994 43-310): as the sequence (P31994 43-310) above
Sequence of CD32aECDHis (human) (P12318 34-215 limits assumed, form in doubt): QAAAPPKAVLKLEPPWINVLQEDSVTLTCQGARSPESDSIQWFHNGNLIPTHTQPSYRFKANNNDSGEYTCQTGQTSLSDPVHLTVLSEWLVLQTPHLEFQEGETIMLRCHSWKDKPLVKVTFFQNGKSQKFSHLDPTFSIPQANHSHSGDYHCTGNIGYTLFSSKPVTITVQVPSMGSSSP

Take “HuMab-KLH (a human monoclonal antibody against KLH (keyhole limpet haemocyanin))”: the IC50 in the experiment with CD32aECDHis (human) was 134000 pM; in the experiment with CD32bECDHis (human) [1], 417000 pM.

Take chimeric anti-CD32b antibody 2B6: the EC50 (nM) in ADCC, lysis of 51Cr-labelled Daudi cells by PBMC in [2] worked out at 0.13 nM; in experiment [3] it was 0.25 nM. In addition, the EC50 came to 1240 pM with CD32bECDHis (human) [4]; 100 pM in experiment [5]; 1490 pM in [6]; 240 pM in experiment [7]; 190 pM in experiment [8]; 340 pM in experiment [20]. Further, the % residual binding was found to be 105% in experiment [9]; 163% in experiment [10]; 179% in experiment [11]; 174% in [12]; 168% in [13]; 165% in experiment [14]. The % residual binding in experiment [15] came to 185%; in experiment [16], 113%; in experiment [17] it was 185%; in experiment [18] it was 181%; in experiment [19], 20%. For the same substance, the half-maximal inhibitory concentration (IC50) in the experiment with CD32bECDHis (human) [21] is 570 pM. In addition, the Kd with CD32bECDHis (human) [22] amounted to 300 pM. For the same substance, the off-rate constant (koff) with CD32bECDHis (human) [22] was 0.00087 s⁻¹. Moreover, the kon with CD32bECDHis (human) [22] was 2.61e+06 M⁻¹ s⁻¹. The Ratio EC50 (CD32b1)/EC50(CD32b2) in [23] was determined as 1.27.
